Patent US20260242478A1 (published 2026)
Where no end group is shown, it is not given here.

B1: Phage-991 (peptide)
peptide: YCEGHTLEYMWKCL
modifications: cysteine pairing not given here; also: displayed fused to phage pIII protein, fusion end and linker not given here
notes: Clonal phage of the peptide-87 library, tested as crude supernatant; not shown: fused to the pIII filament protein of the bacteriophage
B2: Phage-987 (peptide)
peptide: YCDGHSPLYMVKCL
modifications: cysteine pairing not given here; also: displayed fused to phage pIII protein, fusion end and linker not given here
notes: as for B1
B3: Phage-1076 (peptide)
peptide: YCEGHLDEYLQKCL
modifications: cysteine pairing not given here; also: displayed as fusion to phage pIII, linker not given here
B4: Phage-1080 (peptide)
peptide: YCEGHSQLYMAKCL
modifications: cysteine pairing not given here; also: displayed as fusion to phage pIII, linker not given here
B5: Phage-983 (peptide)
peptide: YCDGHLPMYMKKCL
modifications: cysteine pairing not given here; also: displayed fused to phage pIII protein, fusion end and linker not given here
notes: as for B1
B6: Phage-986 (peptide)
peptide: YCDGHSQEYMAHCL
modifications: cysteine pairing not given here; also: displayed fused to phage pIII protein, fusion end and linker not given here
notes: as for B1
B7: Phage-984 (peptide)
peptide: YCQGHLPQYVEKCL
modifications: cysteine pairing not given here; also: displayed fused to phage pIII protein, fusion end and linker not given here
notes: as for B1
B8: Phage-1078 (peptide)
peptide: YCDGHQPQYMSKCL
modifications: cysteine pairing not given here; also: displayed as fusion to phage pIII, linker not given here
B9: Phage-1084 (peptide)
peptide: YCAGHTSEYMSKCL
modifications: cysteine pairing not given here; also: displayed as fusion to phage pIII, linker not given here
B10: Phage-1085 (peptide)
peptide: YCDGHMKEYMLKCL
modifications: cysteine pairing not given here; also: displayed as fusion to phage pIII, linker not given here
B11: Phage-1081 (peptide)
peptide: YCDGHSETYLWKCL
modifications: cysteine pairing not given here; also: displayed as fusion to phage pIII, linker not given here
B12: Phage-1079 (peptide)
peptide: YCDGHLSEYIGKCL
modifications: cysteine pairing not given here; also: displayed as fusion to phage pIII, linker not given here
B13: Phage-990 (peptide)
peptide: YCDGHSEVYMSKCL
modifications: cysteine pairing not given here; also: displayed fused to phage pIII protein, fusion end and linker not given here
notes: as for B1
B14: Phage-1077 (peptide)
peptide: YCDGHLQEYMQKCL
modifications: cysteine pairing not given here; also: displayed as fusion to phage pIII, linker not given here
B15: Phage-1082 (peptide)
peptide: YCEGHLPAYMGKCI
modifications: cysteine pairing not given here; also: displayed as fusion to phage pIII, linker not given here
B16: Phage-994 (peptide)
peptide: YCDGHLPVYMMKCL
modifications: cysteine pairing not given here; also: displayed fused to phage pIII protein, fusion end and linker not given here
notes: as for B1
B17: Phage-1083 (peptide)
peptide: YCEGHLPEYMIKCI
modifications: cysteine pairing not given here; also: displayed as fusion to phage pIII, linker not given here
B18: Phage-995 (peptide)
peptide: YCAGHNAQYMSKCL
modifications: cysteine pairing not given here; also: displayed fused to phage pIII protein, fusion end and linker not given here
notes: as for B1
B19: Phage-985 (peptide)
peptide: YCEGHLDMYVWKCL
modifications: cysteine pairing not given here; also: displayed fused to phage pIII protein, fusion end and linker not given here
notes: as for B1
B20: Phage-993 (peptide)
peptide: YCAGHDQQYMEKCL
modifications: cysteine pairing not given here; also: displayed fused to phage pIII protein, fusion end and linker not given here
notes: as for B1
B21: Phage-1075 (peptide)
peptide: YCDGHAPEYIQKCL
modifications: cysteine pairing not given here; also: displayed as fusion to phage pIII, linker not given here
B22: Phage-988 (peptide)
peptide: YCDGHFLTYMTKCL
modifications: cysteine pairing not given here; also: displayed fused to phage pIII protein, fusion end and linker not given here
notes: as for B1
B23: Phage-992 (peptide)
peptide: YCDGHSQAHMQKCL
modifications: cysteine pairing not given here; also: displayed fused to phage pIII protein, fusion end and linker not given here
notes: as for B1
B24: Phage-989 (peptide)
peptide: YCAGHSEEYMDKCL
modifications: cysteine pairing not given here; also: displayed fused to phage pIII protein, fusion end and linker not given here
notes: as for B1
B25: Phage-996 (peptide)
peptide: YCDGHTSEYMTKCL
modifications: cysteine pairing not given here; also: displayed fused to phage pIII protein, fusion end and linker not given here
notes: as for B1

Assays:
[1] = molecular target: T1, Anti-CD28 Fab (SEQ ID NOs: 696, 697); assay: phage ELISA; Fab-coated wells pre-incubated with CD28 antigen as competitor, anti-M13-HRP detection
T1 construct: In the phage ELISA the Fab was biotinylated and captured on neutravidin coated plates
T1 sequence (VH, as listed by the source, chain 1 of 2): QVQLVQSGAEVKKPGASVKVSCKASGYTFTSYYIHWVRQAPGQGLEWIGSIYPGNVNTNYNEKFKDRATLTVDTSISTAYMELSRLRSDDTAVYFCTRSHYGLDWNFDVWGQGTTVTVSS
T1 sequence (VL, as listed by the source, chain 2 of 2): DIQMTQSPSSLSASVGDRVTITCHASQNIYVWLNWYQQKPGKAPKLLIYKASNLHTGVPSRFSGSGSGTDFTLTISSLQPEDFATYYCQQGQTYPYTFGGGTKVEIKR
Description: (§1) After panning, phage infected bacteria were plated out and colonies picked into 96 well blocks. Clonal phage was then amplified and separated from bacterial cells via centrifugation.
(§2) Clonal phage were harvested as crude supematants and screened via standard ELISAs. […] Prior to the addition of clonal phage, wells were incubated with blocking buffer and CD28 antigen or blocking buffer alone. Without washing or aspirating, clonal phage supematants were then added to the wells and incubated for a short time. Wells were then washed followed by detection of bound phage using a horse radish conjugated anti-M13 antibody. Clonal phage of interest were then sent for sequence analysis.

[2] = molecular target: T1, Anti-CD28 Fab (SEQ ID NOs: 696, 697); assay: phage ELISA; biotinylated anti-CD28 Fab on neutravidin plates, bound phage detected with anti-M13-HRP
Description: as §1, §2

[3] = molecular target: T2, Anti-CD28 Fab (SEQ ID NOs: 696, 697); assay: phage binding ELISA; Fab-coated wells pre-incubated with CD28 antigen as competitor, anti-M13 HRP detection;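 further: crude clonal phage supernatants from panned colonies added to wells after blocking buffer plus CD28 treatment, bound phage measured after a brief incubation and washing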
T2 construct: In the phage ELISA the Fab was biotinylated and captured on neutravidin coated plates
T2 sequence (VH, as listed by the source, chain 1 of 2): as the sequence (VH, as listed by the source, chain 1 of 2) above
T2 sequence (VL, as listed by the source, chain 2 of 2): as the sequence (VL, as listed by the source, chain 2 of 2) above
Description: as §1, §2

[4] = molecular target: T2, Anti-CD28 Fab (SEQ ID NOs: 696, 697); assay: phage binding ELISA; biotinylated anti-CD28 Fab on neutravidin plate, clonal phage supernatant, anti-M13 HRP detection
[5] = molecular target: T3, Anti-CD28 Fab (SEQ ID NOs: 696, 697); assay: phage binding ELISA; biotinylated anti-CD28 Fab on neutravidin plate, clonal phage detected with anti-M13 HRP
T3 construct: In the phage ELISA the Fab was biotinylated and captured on neutravidin coated plates
T3 sequence (VH, as listed by the source, chain 1 of 2): as the sequence (VH, as listed by the source, chain 1 of 2) above
T3 sequence (VL, as listed by the source, chain 2 of 2): as the sequence (VL, as listed by the source, chain 2 of 2) above
Description: as §1, §2

[6] = molecular target: T3, Anti-CD28 Fab (SEQ ID NOs: 696, 697); assay: phage binding ELISA; Fab-coated wells pre-incubated with CD28 antigen as competitor, phage detected with anti-M13 HRP
Description: as §1, §2

| Binder | Anti-CD28 Fab signal in the presence of CD28 [3] | Anti-CD28 Fab signal (phage binding ELISA) [4] | Anti-CD28 Fab signal (phage binding ELISA) [5] | Anti-CD28 Fab signal in the presence of CD28 (phage binding ELISA) [6] | further results |
| --- | --- | --- | --- | --- | --- |
| YCEGHLAEYMDKCL (Tested as clonal phage supernatant) [Phage-722] |  |  |  |  | Phage binding ELISA, Anti-CD28 Fab signal in the presence of CD28 [1]: 0.07; Phage binding ELISA, Anti-CD28 Fab signal [2]: 1.96 |
| B1 | 0.33 | 1.55 |  |  |  |
| B2 | 0.06 | 1.56 |  |  |  |
| B3 |  |  | 1.38 | 0.07 |  |
| B4 |  |  | 1.37 | 0.07 |  |
| B5 | 0.1 | 1.57 |  |  |  |
| B6 | 0.07 | 1.56 |  |  |  |
| B7 | 0.08 | 1.57 |  |  |  |
| B8 |  |  | 1.38 | 0.09 |  |
| B9 |  |  | 1.36 | 0.07 |  |
| B10 |  |  | 1.36 | 0.06 |  |
| B11 |  |  | 1.37 | 0.1 |  |
| B12 |  |  | 1.37 | 0.06 |  |
| B13 | 0.06 | 1.55 |  |  |  |
| B14 |  |  | 1.38 | 0.06 |  |
| B15 |  |  | 1.37 | 0.09 |  |
| B16 | 0.07 | 1.55 |  |  |  |
| B17 |  |  | 1.36 | 0.1 |  |
| B18 | 0.05 | 1.55 |  |  |  |
| B19 | 0.08 | 1.56 |  |  |  |
| B20 | 0.23 | 1.55 |  |  |  |
| B21 |  |  | 1.38 | 0.06 |  |
| B22 | 0.07 | 1.56 |  |  |  |
| B23 | 0.08 | 1.55 |  |  |  |
| B24 | 0.05 | 1.55 |  |  |  |
| B25 | 0.06 | 1.54 |  |  |  |
